This assay relates to SOCS3 expression in healthy keratinocytes. Kind of assay: SOCS3 mRNA and protein induction in healthy keratinocytes. In kind it is cell-based, human. The procedure:
Figure 1 IL-22 induces SOCS3, which limits STAT3 and Erk1/2 activation (A) Keratinocyte cultures (n = 3) were stimulated with IL-22 or not for 10 min and protein lysates were subjected to immunoprecipitation and WB analyses for basal and phospho-IL-22R1, Tyk2 or Jak1. (B) WB of time-course experiments were performed on keratinocyte cultures (n = 3) to evaluate basal STAT3, Erk1/2 and MEK or phosphor-STAT3 (Tyr705 and Ser 727), phosphor-Erk1/2 and phospho-MEK. Anti-β-actin Ab was used to normalize sample loading. (C) SOCS mRNA and protein levels were detected by real-time PCR or WB analyses in cultured keratinocytes prepared from healthy skin (n = 3) left untreated or stimulated with IL-22 for the indicated time periods and normalized with β-actin values. (D) HaCaT cells stably transfected with myc-tagged SOCS1 (n = 4), SOCS2 (n = 2) and SOCS3 (n = 4) genes or control plasmids (mock, n = 3) were left untreated or stimulated with IL-22 for 15 min or 3 h and lysates subjected to WB with anti-phospho STAT3 (Tyr705), -phospho STAT3 (Ser727), -STAT3, -phospho Erk, -Erk, -c-myc and -β-actin Abs, as indicated. (E) Keratinocyte cultures were transiently transfected with siRNA specific for SOCS3 or control siRNA (NC). After 48-h transfection, cells were stimulated with IL-22 or not for the indicated time periods. In RNA interference experiments, data were obtained by three independent experiments, and SOCS3 depletion was assessed by real-time PCR and WB. […] Data are expressed as ratio of densitometric intensity (D. I.) of phosphorylated and unphosphorylated STAT3 and Erk1/2 proteins. p < 0.05 (*) values were considered significant.
Figure 4 SOCS3 and SOCS1 are poorly expressed in the epidermis of NMSC lesions and are not induced in transformed keratinocytes by IL-22 (A) Immunohistochemistry for SOCS3 and SOCS1 (red staining) was performed respectively on frozen or paraffin-embedded sections from biopsies of healthy skin (i), NLS (ii, iii) and LS (iv, v) areas of BCC and SCC, specimens. Psoriatic skin biopsies were also analyzed (vi). Sections were counterstained with Mayer's H&E and were visually evaluated by an pathologist experienced in dermatology. […] (B) Graphs show SOCS3 and SOCS1 mRNA levels which were detected by real-time PCR analysis in cultured SCC (CAL27 and CAL33) and BCC (M77015) skin tumor lines left untreated or stimulated with IL-22 or IFN-γ for 3 h and normalized for β-actin mRNA expression levels. […] SOCS1 was detected by IP using a specific anti-SOCS1 Ab, whereas SOCS3 by WB with an anti-SOCS3 Ab. […] Densitometric intensity (D.I.) of SOCS1 or SOCS3/β-actin was calculated from three independent experiments and numerically expressed as D. I. Ratio. *p < 0.01; **p < 0.05. […] SOCS3 and phospho-Tyr STAT3 levels were detected by WB and normalized to β-actin levels. […]

B1: IL-22: cytokine stimulus, R&D Systems (protein, UniProt Q9GZX6 34-179, looked up)
Interleukin-22: APISSHCRLDKSNFQQPYITNRTFMLAKEASLADNNTDVRLIGEKLFHGVSMSERCYLMKQVLNFTLEEVLFPQSDRFQPYMQEVVPFLARLSNRLSTCHIEGDDLHIQRNVQKLKDTVKKLGESGEIKAIGELDLLFMSLRNACI
In the case of B1, the “time of peak SOCS3 protein induction” value (IL-22 time course, WB, n = 3) was 3 h. For the same molecule, the “time of peak SOCS3 mRNA induction” value (IL-22 time course, real-time PCR, n = 3) is 1 h. Further, the “SOCS3 mRNA and protein expression” value (healthy keratinocytes, 3 h mRNA, 6 h protein) is “significantly induced mRNA and protein expression of SOCS3 in healthy keratinocytes”.

These data come from publication PMC5421877, “SOCS3 inhibits the pathological effects of IL-22 in non-melanoma skin tumor-derived keratinocytes” (Oncotarget, 2017).
